This passage reports median fluorescence intensity following pMHC staining results from paper PMC9630439.

“And” between values parts separate entries of the source, which are not always exact repeats. Equal entries are not always repeated.

The target in assay [1] is GPa3b17 TCR complex expressed without CD3-ζ (TCR-αβ/CD3-δγε2) (human) (UniProt P07766). Nature of the assay: flow cytometry on cells; CHO cells transduced with lentivirus combinations, stained with Alexa Fluor 647-labelled gp100/HLA-A2, 30 min at 4 °C in the dark.
The target of assay [2] is fully assembled GPa3b17 TCR (TCRαβ/CD3δγε2ζ2 complex, CD3 cytosolic domains truncated, CD3-δ tagged with GFP2) (human) (UniProt P07766). The assay is described as above.

Regarding “gp100/HLA-A2 (soluble gp100 peptide / HLA-A*02:01 / β2-microglobulin monomer with C-terminal HPC-4 epitope) (from UniProt P61769 22-119) (peptide-MHC)”, the median fluorescence intensity following pMHC staining in assay [1] was 116000; in assay [2] it was 135000 and 144000.
